Results published in paper PMC8934638, “H3K36 methylation and DNA-binding both promote Ioc4 recruitment and Isw1b remodeler function”.
Numbering of substitutions follows the chain as printed.

How the values were obtained:
Test in all cases: EMSA; EMSA; 15 fmol NCP (30 fmol unmodified NCP) per reaction; 5% native PAGE (37.5:1) in 0.4x TBE, 2% glycerol; binding buffer, pH and temperature not given (as in cited work)
Ioc4 PWWP 2KE = molecular target: T1, Ioc4 PWWP 2KE (Saccharomyces cerevisiae, UniProt Q04213 1-178, K149E;K150E); settings: protein: recombinant; tags: N-terminal 6xHis; label: Cy5 on sense strand; blunt
T1 sequence: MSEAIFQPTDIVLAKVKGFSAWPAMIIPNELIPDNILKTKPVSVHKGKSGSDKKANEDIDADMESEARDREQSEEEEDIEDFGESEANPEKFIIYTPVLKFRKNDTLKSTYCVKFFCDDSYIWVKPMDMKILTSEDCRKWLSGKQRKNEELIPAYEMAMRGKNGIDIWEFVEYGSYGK

Ioc4 2KE = molecular target: T2, Ioc4 2KE (Saccharomyces cerevisiae, UniProt Q04213 1-475, K149E;K150E); settings: protein: recombinant; tags: N-terminal 6xHis-MBP; label: Cy5 on sense strand; blunt
T2 sequence: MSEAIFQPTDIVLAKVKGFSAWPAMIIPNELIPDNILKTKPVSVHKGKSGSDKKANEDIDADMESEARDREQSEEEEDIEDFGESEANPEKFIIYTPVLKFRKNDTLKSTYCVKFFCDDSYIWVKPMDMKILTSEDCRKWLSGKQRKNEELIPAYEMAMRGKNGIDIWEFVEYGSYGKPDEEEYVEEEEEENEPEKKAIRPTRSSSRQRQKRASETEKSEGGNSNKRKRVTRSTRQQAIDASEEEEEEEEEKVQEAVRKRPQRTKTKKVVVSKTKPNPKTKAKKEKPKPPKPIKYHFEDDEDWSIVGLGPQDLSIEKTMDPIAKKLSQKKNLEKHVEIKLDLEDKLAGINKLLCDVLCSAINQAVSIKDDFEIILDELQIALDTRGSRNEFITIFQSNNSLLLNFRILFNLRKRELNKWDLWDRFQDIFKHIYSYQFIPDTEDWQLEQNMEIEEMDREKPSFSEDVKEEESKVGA

Ioc4 PWWP 2KA = molecular target: T3, Ioc4 PWWP 2KA (Saccharomyces cerevisiae, UniProt Q04213 1-178, K149A;K150A); settings: protein: recombinant; label: Cy5 on sense strand; blunt
T3 sequence: T1 sequence with E149A, E150A

Ioc4 dPWWP = molecular target: T4, Ioc4 dPWWP (Saccharomyces cerevisiae, UniProt Q04213 179-475, del1-178); settings: protein: recombinant; tags: N-terminal 6xHis-MBP; label: Cy5 on sense strand; blunt
T4 sequence: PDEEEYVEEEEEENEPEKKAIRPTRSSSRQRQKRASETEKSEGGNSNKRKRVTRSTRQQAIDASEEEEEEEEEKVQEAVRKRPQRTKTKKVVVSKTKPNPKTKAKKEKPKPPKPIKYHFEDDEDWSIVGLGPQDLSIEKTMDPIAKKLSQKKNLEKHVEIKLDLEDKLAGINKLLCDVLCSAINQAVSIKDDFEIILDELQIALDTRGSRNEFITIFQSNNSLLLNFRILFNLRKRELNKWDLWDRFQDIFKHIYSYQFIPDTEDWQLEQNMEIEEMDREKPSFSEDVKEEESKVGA

B1: dsDNA 30 bp (601-derived EMSA probe) (dsDNA)
DNA 1: GGCAAGGTCGCTGTTCAATACATGCACAGG
DNA 2: CCTGTGCATGTATTGAACAGCGACCTTGCC
Ioc4 PWWP 2KE
  binding result: no binding
Ioc4 2KE
  Kd: 76 nM
Ioc4 PWWP 2KA
  binding result: no binding
Ioc4 dPWWP
  Kd: 121 nM
